# B1: TPR t1 (parent)
# chain: GACCAAUCUGCCCUCAGAGCUCGAGAACAUCUUCGGAUGCAGAGGAGGCAGGCUUCGGUGGCGCGAUAGCGCCAACGUCCUCAACCUCCAAUGCAUCCCACCACAUGAUGAUGCCUGAAGAGCCUUGGUUUUUUG
# Variants of: B1
# Test: polymerase ribozyme fitness, log enrichment relative to wild type (log ratio); higher = more active; in vitro selection for triplet polymerase activity
# How it was run: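 Only genotypes with ≥10 input reads and ≥1 read per output were kept after Illumina sequencing of input and output libraries. These libraries were PCR-built, transcribed mutants of each subunit of a heterodimeric triplet polymerase ribozyme, each put through one triplicate in vitro selection round with frozen incubation at −7 °C, gel excision of extended constructs, streptavidin-bead capture and RT-PCR. Fitness is a logarithmic ratio of genotype enrichment to wild-type enrichment, from inverse-variance-weighted replicate averages, with the logarithm in base 2.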
row,Variant,polymerase ribozyme fitness (log ratio)
1,C53A U54G C70U C86U C89G A121C U125A,-2
2,G52A C72U U125A G128C,-3.74
3,U54C C97G C123U,-2.86
4,G52U C98U,-2.89
5,C53A C79U C94G C101A,-1.64
6,G51U U106G G110U C124A,-6.4
7,G52A A118G,-0.546
8,G52C G127U,-1.33
9,G52C C70U U106A,-1.07
10,C53U G122A,-0.631
11,G52A G117U,-0.533
12,G52A G117C,-2.77
13,C53A C88U U106G,-1.18
14,G52A C72U C85G,-2.39
15,G52A G60A,-0.303
16,U54C G61C C73A G93U,-2.61
17,G51U U55A C72A U129A U133A,-4.5
18,G52A G63U,-2.08
19,U54G A95G U130A,-1.11
20,G52C G71C C102U C104A,-3.27
21,G52U C70U U78A C101G G128A,-3.89

row,Variant,polymerase ribozyme fitness (log ratio)
1,C53A G60A,-0.364
2,C53U U132A,-0.215
3,C53U G60A A74C,-0.941
4,G52A C62U G117U,-2.86
5,C53G C56G,-0.593
6,C53G C56A,-0.204
7,G52A G122A C124U,0.227
8,C53G C115G,-1.44
9,G52A G71U U87A U131G,-2.35
10,C53G C114G,-3.08
11,G52U G93U G110U,-3.97
12,U54A C94A G113U,-3.97
13,C53G G60C C98A C102A,-6.1
14,G52A G57A C82U C85A A121U,-1.13
15,G51U U129C,-4.13
16,C53A C123G,2.31
17,U54C C115U,-0.738
18,U54C C115A,-0.609
19,U54A C124A,-0.2
20,G52A G60C G61A,-4.56
21,U54A C56U U133A,-0.112

row,Variant,polymerase ribozyme fitness (log ratio)
1,U54C G61A,-0.24
2,U54G A84C,-0.587
3,C53G C73U G113C A121C,-2.12
4,G52A U87C,0.43
5,G52U A105G,-3.17
6,G52U A68U A83C C101G C115U,-7.12
7,G51U G71A C85A C101U,-7.55
8,C53A G61A C79A,-0.911
9,A50U U112A,-0.102
10,U54A C115G,-2.09
11,G52U G61U U81C C115U,-4.28
12,C53A U112G,-0.496
13,C53U C123G,1.61
14,G52A U78G,-0.374
15,G52A U78C,-0.748
16,G52A U78A,-0.123
17,G51C G60C,-4.64
18,G52U C72G,0.452
19,C53G C114U G127C,-2.8
20,G52A C56U,-0.699
21,G51U C79A U87C U106A,-2.68

row,Variant,polymerase ribozyme fitness (log ratio)
1,G52U C64U C82G,-2.19
2,C53A C70U C115A A118U,-1.34
3,G52U U59G C88A C101U,-1.76
4,G52U G60A G69A C82A C102U C123G,-6.73
5,G51A A74C,-4.63
6,G51A G52A C101U,-3.92
7,G52U C76A A105U,-3.02
8,C53U C72A U130A,-0.183
9,G51U C82U C85U C94U,-2.49
10,C53A G60A U133A,-1.16
11,C53U G69A A103C G120U G128C U131G,-6.03
12,U54A U92C G128A,-3.16
13,C53A C64U U78C C104A,-0.646
14,G52U C73G U92C C104U U116C U129A,-4.98
15,G52U G58C,-0.674
16,U54A U87A G117U,-2.44
17,G52C U59C G120U U125C,-0.0154
18,G52A C72U,-0.913
19,C53U C62A U78C,-1.46
20,C53A C79A,-3.06
